Results as given in the supplement of paper PMC9112550, “Optimization of the antimicrobial peptide Bac7 by deep mutational scanning” (BMC Biology, 2022).

Test system: Escherichia coli TOP10
Assay: shrunken log2 fold change of peptide-encoding DNA abundance (4.5 h post-induction vs induction); higher = less antimicrobial activity (less host growth inhibition)
Conditions: time post-induction: 4.5 h; library: site-saturation at positions 5, 18, 19, 20
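Also: peptides expressed intracellularly from a pBAD plasmid library in pooled LB shake-flask culture, induced with 0.3% L-arabinose, DNA abundance read by NGS, three biological replicates, DESeq2 with apeglm shrinkage.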

Sequence	shrunken log2 fold change
RRIRSRPPRLPRPRPRPEMCPRP	-0.104
RRIRSRPPRLPRPRPRPEMTPRP	-0.0333
RRIRSRPPRLPRPRPRPEPDPRP	0.953
RRIRSRPPRLPRPRPRPEPEPRP	0.102
RRIRSRPPRLPRPRPRPEPKPRP	0.954
RRIRSRPPRLPRPRPRPEPQPRP	0.397
RRIRSRPPRLPRPRPRPERAPRP	0.399
RRIRSRPPRLPRPRPRPERCPRP	0.0123
RRIRSRPPRLPRPRPRPERLPRP	0.131
RRIRSRPPRLPRPRPRPEVNPRP	0.426
RRIRSRPPRLPRPRPRPEWWPRP	0.0594
RRIRSRPPRLPRPRPRPEYAPRP	0.496
RRIRSRPPRLPRPRPRPEYKPRP	0.0361
RRIRSRPPRLPRPRPRPEYWPRP	0.191
RRIRSRPPRLPRPRPRPFAAPRP	0.355
RRIRSRPPRLPRPRPRPFCNPRP	-0.106
RRIRSRPPRLPRPRPRPFCYPRP	-0.528
RRIRSRPPRLPRPRPRPFDHPRP	-0.488
RRIRSRPPRLPRPRPRPFDYPRP	-0.0792
RRIRSRPPRLPRPRPRPFEHPRP	-0.0715
RRIRSRPPRLPRPRPRPFFGPRP	0.148
RRIRSRPPRLPRPRPRPFFLPRP	-0.16
RRIRSRPPRLPRPRPRPFISPRP	-0.152
RRIRSRPPRLPRPRPRPFIWPRP	-0.297
RRIRSRPPRLPRPRPRPFIYPRP	-0.82

Sequence	shrunken log2 fold change
RRIRSRPPRLPRPRPRPFKPPRP	-0.297
RRIRSRPPRLPRPRPRPFLRPRP	-0.0915
RRIRSRPPRLPRPRPRPFLYPRP	-0.442
RRIRSRPPRLPRPRPRPFMAPRP	-0.497
RRIRSRPPRLPRPRPRPFPFPRP	-0.187
RRIRSRPPRLPRPRPRPFPRPRP	0.356
RRIRSRPPRLPRPRPRPFQAPRP	0.0408
RRIRSRPPRLPRPRPRPFRTPRP	-0.318
RRIRSRPPRLPRPRPRPFSVPRP	-0.416
RRIRSRPPRLPRPRPRPFTCPRP	-0.0185
RRIRSRPPRLPRPRPRPFVMPRP	-0.0833
RRIRSRPPRLPRPRPRPFWGPRP	0.176
RRIRSRPPRLPRPRPRPFWVPRP	0.106
RRIRSRPPRLPRPRPRPFYCPRP	-0.14
RRIRSRPPRLPRPRPRPFYFPRP	-0.55
RRIRSRPPRLPRPRPRPGAMPRP	0.724
RRIRSRPPRLPRPRPRPGCAPRP	0.46
RRIRSRPPRLPRPRPRPGCRPRP	0.293
RRIRSRPPRLPRPRPRPGDMPRP	0.0129
RRIRSRPPRLPRPRPRPGDNPRP	0.0473
RRIRSRPPRLPRPRPRPGEMPRP	0.336
RRIRSRPPRLPRPRPRPGFAPRP	0.502
RRIRSRPPRLPRPRPRPGFCPRP	0.108
RRIRSRPPRLPRPRPRPGFEPRP	0.418
RRIRSRPPRLPRPRPRPGFHPRP	0.0792

Sequence	shrunken log2 fold change
RRIRSRPPRLPRPRPRPGFKPRP	0.122
RRIRSRPPRLPRPRPRPGGAPRP	0.574
RRIRSRPPRLPRPRPRPGHQPRP	-0.167
RRIRSRPPRLPRPRPRPGHWPRP	0.286
RRIRSRPPRLPRPRPRPGIEPRP	0.158
RRIRSRPPRLPRPRPRPGISPRP	-0.486
RRIRSRPPRLPRPRPRPGKCPRP	0.0216
RRIRSRPPRLPRPRPRPGLEPRP	0.00456
RRIRSRPPRLPRPRPRPGLNPRP	-0.207
RRIRSRPPRLPRPRPRPGLYPRP	-0.106
RRIRSRPPRLPRPRPRPGNNPRP	-0.354
RRIRSRPPRLPRPRPRPGQRPRP	0.0367
RRIRSRPPRLPRPRPRPGRYPRP	-0.344
RRIRSRPPRLPRPRPRPGSAPRP	0.231
RRIRSRPPRLPRPRPRPGSEPRP	0.593
RRIRSRPPRLPRPRPRPGTYPRP	-1.16
RRIRSRPPRLPRPRPRPGVCPRP	0.562
RRIRSRPPRLPRPRPRPGVNPRP	-0.398
RRIRSRPPRLPRPRPRPGWMPRP	-0.0141
RRIRSRPPRLPRPRPRPGWVPRP	0.549
RRIRSRPPRLPRPRPRPGYEPRP	-0.157
RRIRSRPPRLPRPRPRPGYGPRP	-0.0163
RRIRSRPPRLPRPRPRPHALPRP	0.0303
RRIRSRPPRLPRPRPRPHASPRP	0.188
RRIRSRPPRLPRPRPRPHATPRP	0.378

Sequence	shrunken log2 fold change
RRIRSRPPRLPRPRPRPHCFPRP	0.111
RRIRSRPPRLPRPRPRPHCRPRP	-0.172
RRIRSRPPRLPRPRPRPHERPRP	7.23e-05
RRIRSRPPRLPRPRPRPHEYPRP	0.00184
RRIRSRPPRLPRPRPRPHFDPRP	0.0286
RRIRSRPPRLPRPRPRPHFTPRP	-0.256
RRIRSRPPRLPRPRPRPHGEPRP	-0.0153
RRIRSRPPRLPRPRPRPHKGPRP	-0.22
RRIRSRPPRLPRPRPRPHLMPRP	-0.0307
RRIRSRPPRLPRPRPRPHLVPRP	-0.118
RRIRSRPPRLPRPRPRPHMDPRP	-0.427
RRIRSRPPRLPRPRPRPHPGPRP	0.00228
RRIRSRPPRLPRPRPRPHQLPRP	-0.201
RRIRSRPPRLPRPRPRPHQRPRP	-0.249
RRIRSRPPRLPRPRPRPHSEPRP	-0.0351
RRIRSRPPRLPRPRPRPHTKPRP	0.0141
RRIRSRPPRLPRPRPRPHTWPRP	-0.0472
RRIRSRPPRLPRPRPRPHWTPRP	-0.0566
RRIRSRPPRLPRPRPRPIAEPRP	-0.0272
RRIRSRPPRLPRPRPRPIAQPRP	-0.0267
RRIRSRPPRLPRPRPRPIDYPRP	-0.0581
RRIRSRPPRLPRPRPRPIELPRP	-0.122
RRIRSRPPRLPRPRPRPIFFPRP	0.124
RRIRSRPPRLPRPRPRPIFKPRP	-0.186
RRIRSRPPRLPRPRPRPIGFPRP	-0.0486

Sequence	shrunken log2 fold change
RRIRSRPPRLPRPRPRPIGIPRP	-0.67
RRIRSRPPRLPRPRPRPIGSPRP	0.136
RRIRSRPPRLPRPRPRPIHDPRP	-0.128
RRIRSRPPRLPRPRPRPIHVPRP	-0.154
RRIRSRPPRLPRPRPRPIILPRP	-0.617
RRIRSRPPRLPRPRPRPIISPRP	-0.472
RRIRSRPPRLPRPRPRPIKFPRP	-0.0229
RRIRSRPPRLPRPRPRPIKNPRP	-0.399
RRIRSRPPRLPRPRPRPILGPRP	-0.016
RRIRSRPPRLPRPRPRPILQPRP	0.0824
RRIRSRPPRLPRPRPRPILTPRP	-0.125
RRIRSRPPRLPRPRPRPIMEPRP	-0.182
RRIRSRPPRLPRPRPRPINFPRP	-0.168
RRIRSRPPRLPRPRPRPINMPRP	-0.928
RRIRSRPPRLPRPRPRPINWPRP	-0.161
RRIRSRPPRLPRPRPRPIPAPRP	-0.286
RRIRSRPPRLPRPRPRPIQQPRP	-0.0226
RRIRSRPPRLPRPRPRPIRGPRP	-0.0109
RRIRSRPPRLPRPRPRPIRYPRP	0.31
RRIRSRPPRLPRPRPRPISIPRP	0.0336
RRIRSRPPRLPRPRPRPITKPRP	-0.083
RRIRSRPPRLPRPRPRPIVNPRP	-0.259
RRIRSRPPRLPRPRPRPIWCPRP	-0.288
RRIRSRPPRLPRPRPRPIYWPRP	-0.0771
RRIRSRPPRLPRPRPRPKAIPRP	0.119

Sequence	shrunken log2 fold change
RRIRSRPPRLPRPRPRPKAPPRP	0.184
RRIRSRPPRLPRPRPRPKAVPRP	0.255
RRIRSRPPRLPRPRPRPKCKPRP	-0.0132
RRIRSRPPRLPRPRPRPKCTPRP	-0.0418
RRIRSRPPRLPRPRPRPKCWPRP	0.359
RRIRSRPPRLPRPRPRPKDFPRP	0.0212
RRIRSRPPRLPRPRPRPKDKPRP	-0.117
RRIRSRPPRLPRPRPRPKEQPRP	-0.0517
RRIRSRPPRLPRPRPRPKEWPRP	-0.0193
RRIRSRPPRLPRPRPRPKFDPRP	-0.081
RRIRSRPPRLPRPRPRPKGEPRP	0.379
RRIRSRPPRLPRPRPRPKHIPRP	-0.368
RRIRSRPPRLPRPRPRPKHLPRP	-0.466
RRIRSRPPRLPRPRPRPKHMPRP	0.00683
RRIRSRPPRLPRPRPRPKIMPRP	-0.246
RRIRSRPPRLPRPRPRPKKCPRP	-0.0782
RRIRSRPPRLPRPRPRPKLIPRP	-0.257
RRIRSRPPRLPRPRPRPKLSPRP	0.352
RRIRSRPPRLPRPRPRPKMAPRP	-0.13
RRIRSRPPRLPRPRPRPKMRPRP	0.269
RRIRSRPPRLPRPRPRPKNYPRP	-0.547
RRIRSRPPRLPRPRPRPKQVPRP	0.0497
RRIRSRPPRLPRPRPRPKSWPRP	0.392
RRIRSRPPRLPRPRPRPKVQPRP	0.293
RRIRSRPPRLPRPRPRPKVYPRP	0.226
